Here are results for 22 sequences from the DeepSol protein solubility set.

The data set in a line: soluble on expression in E. coli; label from the status in PepcDB or PDB records.
As for “MTHETDKIVEIERQKIEVENERFAIEDECCSIKKRIDVLDGVAAQISSGPASMGFSGQCSSSIPASGSQPHLTRRHTVTGQEPNPLAMSQNQMSTGFFFNHESLDNLAKFLGYYGE”, the “soluble on expression in E. coli” value is reported as “not soluble”.
Then “SNASKGMALRSVGGMVIESPRNETEHWLLETVGRQAQQAGIGMPTVAIYDSADINAFATGAKRDDSLVAVSTGLLHNMTRDEAEAVLAHEVSHIANGDMVTMTLMQG”, with “soluble”; and “AHHHHHHGSGDNRKVRVVVGGVFDILHVGHVHFLKMAKELGDELIVIVAHDETVKRRKGRPPINPAEDRAELLKSIRYVDDVVIGEPGEISIDLIKRLKPDVIALGPDQDFSCEELKKRLRKEGINAEVIRLPYLYKSDRAKTSKIIQRIIETFCE”, with “not soluble”.
Then “MSLLNKMRCSVSAEVYGEWNKKKNFVAPVYEKDEGQKEQLERILRQSFLFNSLDEKDLNTVILAMQEKKIEASTCLIREGDDGECLYIVQSGELNCSKLIDGEERVVKVVGPGDAFGELALLYNAPRAATVTSVSACDLWELGRDTFNAIVKDAATKRRSMYDSFLKSVHILDGMDAYERGKVADALRTEMFTDGAYIVRQGELGDVFYIVEEGSAVATKSFGPGQPPIEVKKYQAGDYFGELALINEEPRAANVIAHGICKVACLERKSFKRLMGSVQDLLSKKASDLLTMAEEGHHHHHH”, with “soluble”; and “MSLKNIVFDIGNVLLKFTPVEFLKSKYKDDKLVEALYENVFKSNEWVELDRGTITEEEATCRFCKRDPHNAKYIREVMETWNEMHVPVEGTSELMKELREKGYKIYLLSNYHLKAFKLISDKYDFIRDVDGGIISSKVKLLKPELEIYKALTNSCGIKPEESIFIDDREENVEAAIKLGFNGIVFKDAYELKGKFDELGIAIEGHHHHHH”, with “soluble”.
With “MAHHHHHHMTADARTDDGGLRRAYTRSMPAVLRPLWLLEESMRDVQVQWEEIIEGVMVEDVSFSSVRAAVLHVERLASQLKAIKQELMPRLSHFSQKEEDSEQPFLRYCSCAAKPTVNGDNSICDLAQGEQTQAARLAARVWVWGVCVGTIMNDLELLSTSLSFAASTCLLEKFAEEVRLTEASTFFLGKDEGVASPLSDSDLLLACQLLYHLFTGDDAAAEMTCHRVLSLIDDCEERDDGKECRGCILSRLVRIAECVAAEDYGALQVLMKVDFFTGVDTLCSLPPLIIFFTQMMLDTVVHRQLVQGCFQNVWRPVINVDRPARDESPSVPSEAMMNSFCSSSRLSFTTKRRLMTCCAVFRESLPPRVPWPIPEDLMDRCFRMGL”, the “soluble on expression in E. coli” value is given as “not soluble”.
As for “MSLYSTDSGNLFHAGRILVVLVGLPATSKTLLSVAITRYTRWLGVRTKSFHFSEYKESAKNIPSDYFCVVPTSKEGVAFVEKLRMQMLNDILAFFNDLSGQLAIYDALNIRKIDRKNLETTFSEIGVKVLFIESIVSDQEIMNRNIALALESNDYKGLSTDEAIDEYMRRLSVNEPYYEMMTHDEELSYIKYINLGKQIIVKDNIHGYLVNKIVFFLMNLRQKKGCVYFARCGTSDKDNYIHDEELNEEGIHYSQVLKDFVLQRIKQKRQAKKNSDSLVEVIDGSHDEDLKTSLIVWTGPRKRTHDTALFFSKEGIKVQQRSELRQLNPGSIADLTDQQIMDKFPSEYKESLKDPYHFRFPRAESYHDLAVRMEPLLLEMEHTSKDILIIAHESTLRVLYGYLMACTCVELPNLNFTRDKLVEISFSPFCNTVELLNIPLTEGHHHHHH”, the “soluble on expression in E. coli” value is recorded as “soluble”.
Then “RKIGTAFVMGDVEEVMSRSSQLVINPYHGHKEADRDIKNPENWESVMEFAQIDGVFVLDENGIIIACGRYIEASAKDLVSKIKRGLGGRHIACASITKETKAIAVVVSESGGDITVYKD”, with “soluble”; and “MIVCMSVSLLRSYAVRRALGALVVAGFLGAGVTGCSNDAGAKTENTVDGSPTPVSTPTDGEGDGAGEPVEETPAEPEQRPTPVEPEAMKTGDKAGAIAAAQYFVEVIEYSMHTSTTDLLEKYSYEHCDRCAHFVEVINTRQEKNVLPKSVVINSSQEGHPEFRGEGAIIWRVPMRLQISEQWETGKEPRKEDVKVSISVANENGRWVLVGIVAED”, with “not soluble”.
Then “VGKEKREIELFVSDPELEAEVKAASEGKMKAAIKTEEKKAREAAIEEVKEEILESYKAKELENEAEILGEVAHILEMIEKDEMRRLISQDKIRPDGRKVNEIRP”, with “not soluble”; and “MSLTKFHGVFPPVPTIVNAQGELDKVGMATLLDHLIASKVNGVLLLGSGGEFCHMTNALRLETAEFCVRHINRRIPVLLGISSTSTQEVIEYGQHADRLEVDAVLVLNPYYARLTDEYIYHHFKTVANNIKSPVILYNFPALTGQDLSVDLITRLAQDHPNIIGIKDTVDNISHIREIINNVRPVRPDFVIFSGYDEYMMDTLILGGNGGIPATANFAPQLTCGIYRAWCEKEYETMFGLQRRLSALSTIYSLDSPFFGIIKKAIQLSGVDISTHVMPPVLPANEEHISNLKQILQRAGLEGHHHHHH”, with “soluble”; and “MGHHHHHHSHMSSSAGSGHQPSQSRAIPTRTVAISDAAQLPHDYCTTPGGTLFSTTPGGTRIIYDRKFLLDRRNSPMAQTPPCHLPNIPGVTSPGTLIEDSKVEVNNLNNLNNHDRKHAVGDDAQFEMDI”, with “soluble”.
Then “MGSDKIHHHHHHMTSDIKRHIKELISGSENSEVEFKSAKGGLPESFWETFSAFANTNGGIIVLGIKEKNGIFMPDGLNKQQIDTYKKRFWDCAHNKEKVSATMLAERDVYETDIDGNFVLLFRIPRASYDIRPVYLTRNPFGNTFKRNHEGDYHCTDSEIRQMFADAHHATLPFDNQILPNYSMNDIDVATLKGYRQRFMLRKDNHPWNELDDFNFLCKIGAYRVDRENGQEGFTRAGILMFGKTESITDQVCCPWYFVDYQEKLSNNTNERWSDRIYADGSWNANLYQFFFKVYNKLSQTLPAPFLLNGIERTEETSAHIAIREALVNCIVHCNYAEQGNILIVREKDKITFRNPGRMLISVDDFYVGSQSVCRNPIIQKFFIQLGYGEKAGSGADYIVKGAIDNKWHIPALVEHVQPDTVSLYLYLNDANDTSYDANNTSYDANDTSYDANDTSYDANDTSSNEHGQRLTKETLINRVLEICEDWITIDEISEKTGKSRQYLRGRIIPEMLKLGLLEKQYPDASTSPNQKYRKKQ”, with “not soluble”; and “GSEPYSLTAQQSSLIREDKSNAKLWNEVLASLKDRPASGSPFQLFLSKVEETFQCICCQELVFRPITTVCQHNVCKDCLDRSFRAQVFSCPACRYDLGRSYAMQVNQPLQTVLNQLFPGYGNGR”, with “soluble”.
Turning to “MKGIIFTEFMELVESKFGLEVLDQVLELSDDEGVYTSVGSYDHRDLVKLIVNLSKVSDIPPEQLQEVFGESVFLNLLRSIPSHASLQQCDNTFQFVRHVESFIHVEVKKLYPDANPPKFDFISETQSELVFDYHSARCMAHVCLGLLKGCAAHFGQVIHIMHQNQTEDGSQVRFWLEAQLEHHHHHH”, the “soluble on expression in E. coli” value was “not soluble”.
Turning to “MGSDKIHHHHHHMVVALQYRTDLLEIHRFTRFESSLAHLGFRHFQPLASLRPWVHRYFHLQVATNLPQSIEQTFYPDGGTSLQFYFPAPSLNTNSDEPKVVFHCGQSLHSHAFVPGIEQMIVRFHPGGAFHLLGIAVQEIQQTSSHTVIEATQLHLPGLNQLLSQLADTNQPMQRIAQLEQWLLQLIKPQLDRGTWSTAGIVQMSLPRLIQPQTRLENFYGQLALSRRQFERRFKQETGLSPAQLQQLNRVKIARDLLSQSPELNLAQVAFDCGFYDQAHLHQHFVRVTQQTPGQYKKRKMSQISNLTQR”, the “soluble on expression in E. coli” value is on record as “not soluble”.
As to “MGSDKIHHHHHHMMFVHIADNHLGYRQYNLDDREKDIYDSFKLCIKKILEIKPDVVLHSGDLFNDLRPPVKALRIAMQAFKKLHENNIKVYIVAGNHEMPRRLGEESPLALLKDYVKILDGKDVINVNGEEIFICGTYYHKKSKREEMLDKLKNFESEAKNYKKKILMLHQGINPYIPLDYELEHFDLPKFSYYALGHIHKRILERFNDGILAYSGSTEIIYRNEYEDYKKEGKGFYLVDFSGNDLDISDIEKIDIECREFVEVNIKDKKSFNEAVNKIERCKNKPVVFGKIKREFKPWFDTLKDKILINKAIIVDDEFIDMPDNVDIESLNIKELLVDYANRQGIDGDLVLSLYKALLNNENWKELLDEYYNTKFRG”, the “soluble on expression in E. coli” value is recorded as “not soluble”.
With “MGSDKIHHHHHHMATGTLPDAGQILNSLINSILLVDDDLAVHFANPAAQQLLAQSSRKLFGTPLPELLSYFSLNIGLMQESLQAGQGFTDNEVTLVIDGRSHILSLTAQRLPEGFILLEMAPMDNQRRLSQEQLQHAQQVAARDLVRGLAHEIKNPLGGLRGAAQLLSKALPDPALTEYTKVIIEQADRLRNLVDRLLGPQHPGMHVTESIHKVAERVVKLVSMELPDNVKLIRDYDPSLPELPHDPDQIEQVLLNIVRNALQALGPEGGEIILRTRTAFQLTLHGVRYRLAARIDVEDNGPGIPPHLQDTLFYPMVSGREGGTGLGLSIARSLIDQHSGKIEFTSWPGHTEFSVYLPIRK”, the “soluble on expression in E. coli” value is on record as “not soluble”.
Then “MRVDIVPVGDVPAHVKRQASSSLRSVYDCEVVVASEQDVPTAAYDEARSQYRAAEFIDTATRATSGDKTIAITPHDLFYRRRNYVFGLAYLDGRGCVVSTYRLQTSSDGGFSNRSSSDVFDDRVRKEVVHELGHTLGLEHCDNNRCAMNFSPTVREVDRKEENLCGSCQRTVFLEHHHHHH”, with “not soluble”; and “MCGLLGMLSSTGQASKYAAAIESALPCMHHRGPDEAGTWHDDHAVFGFNRLSIIDLEHSHQPLRWGPEGEPDRYAMTFNGEIYNYVELRKKLQDLGYTFNTSGDGETIAVGFHHWGADVVLHLRGMFGIAIWDTKEQRLFLARDQFGIKPLYFATTEAGTVFASEKKCILGMADAIGLDLGLDQRAIEHYIDLQYVPEPESLHQHIRRLESGCFAFVSVGGNVEQTRYFRPQFPAQEF”, with “not soluble”; and “MLPRFADIFQQGNRWLNWLEKQPEGAVRPVVIESVTKIMACGTTLMGYTNRCCSSPDCCHTKKVCFRCKSRSCPHCVVKAGAQWIQYLLSLVPYCPWQHIVFTLPCQYWSLVFHNRWLLAKMSRIAADVILEICHQADVEPGIFTVIHTWGRDQQWHPHIHLSTTAGGVTSGHTWKNLHFYARKVMSMWRYRITRLLSRKYPYLVMPDALAAEGSSKREWNRFLDTHYRRGWNVNVSRVMDNATHVAVYFGSYLKKPPVPMSRLEHYAGQDEIGLRYNSHRTKREEYLLMSGDESMERFSWHVADKGFRMVRYYVFLSPAKRRLLEEVVYIITETVRKTAMQITWRGMYQRLLKVDPLKCVLCGSQMRFTGLKRGYRLAEQVLMHEPLARMRWCG”, with “not soluble”.
Then “GRAPRNGEKVLVEFVSANPTGPLHVGHARQAALGDAICRLYDASGWDVTREFYYNDAGNQIDNLAISVQARGRGIAPDAPDYPTDGYKGDYIVEIARDFAARKSVQASDGQPVTATGDLDSLDDIRAFAVAYLRREQDLDLQAFGLAFDNYFLESSLYASGRVQETVDTLVAKGHTYEEGGALWLRTTELGTGDDKDRVMRKSEGGYTYFVPDVAYHKVKWERGFHHAVNIQGSDHHGTVARVRAGLQGLEAGIPKDFPAYVLHKMVKVMRGGEEVKISKRAGSYVTMRDLIDWVGRDAVRYFLIQRRADTEFVFDIDLALSKSDENPVYYIQYAHARICTMIGNSGA”, with “not soluble”.
